# Data as given in patent US7390625B2, “Apoptosis-associated protein and use thereof” (Takeda Pharmaceutical Company Limited, priority 2002, dated 2008).
# B1: CFP-ABP1: fusion protein of ABP1 with CFP at the N-terminal (protein)
# chain: MRPLDIVELAEPEEVEVLEPEEDFEQFLLPVINEMREDIASLTREHGRAYLRNRSKLWEMDNMLIQIKTQVEASEESALNHLQNPGDAAEGRAAKRCEKAEEKAKEIAKMAEMLVELVRRIEKSESS
# modifications: left off: large carriers
# notes: fusion protein of ABP1 with CFP at the N-terminal
# B2: ABP1: ASK1-binding protein of 127 amino acids encoded by gene PGR1 (SEQ ID NO:2); Myc-tagged in PAE-ABP1 cells (protein, listed as Homo sapiens)
# chain: B1 chain
# modifications: Myc tag
# notes: Myc-tagged in PAE-ABP1 cells
# Columns and labels:
# ASK1 [1] = molecular target: T1, ASK1 (Homo sapiens, UniProt Q99683); assay: Co-immunoprecipitation of ABP1 and ASK1 co-expressed in HEK293 cells; type: binding
# T1 construct: Myc; expressed in transfected cells; host or cells: HEK293
# T1 sequence (Q99683 1-1374): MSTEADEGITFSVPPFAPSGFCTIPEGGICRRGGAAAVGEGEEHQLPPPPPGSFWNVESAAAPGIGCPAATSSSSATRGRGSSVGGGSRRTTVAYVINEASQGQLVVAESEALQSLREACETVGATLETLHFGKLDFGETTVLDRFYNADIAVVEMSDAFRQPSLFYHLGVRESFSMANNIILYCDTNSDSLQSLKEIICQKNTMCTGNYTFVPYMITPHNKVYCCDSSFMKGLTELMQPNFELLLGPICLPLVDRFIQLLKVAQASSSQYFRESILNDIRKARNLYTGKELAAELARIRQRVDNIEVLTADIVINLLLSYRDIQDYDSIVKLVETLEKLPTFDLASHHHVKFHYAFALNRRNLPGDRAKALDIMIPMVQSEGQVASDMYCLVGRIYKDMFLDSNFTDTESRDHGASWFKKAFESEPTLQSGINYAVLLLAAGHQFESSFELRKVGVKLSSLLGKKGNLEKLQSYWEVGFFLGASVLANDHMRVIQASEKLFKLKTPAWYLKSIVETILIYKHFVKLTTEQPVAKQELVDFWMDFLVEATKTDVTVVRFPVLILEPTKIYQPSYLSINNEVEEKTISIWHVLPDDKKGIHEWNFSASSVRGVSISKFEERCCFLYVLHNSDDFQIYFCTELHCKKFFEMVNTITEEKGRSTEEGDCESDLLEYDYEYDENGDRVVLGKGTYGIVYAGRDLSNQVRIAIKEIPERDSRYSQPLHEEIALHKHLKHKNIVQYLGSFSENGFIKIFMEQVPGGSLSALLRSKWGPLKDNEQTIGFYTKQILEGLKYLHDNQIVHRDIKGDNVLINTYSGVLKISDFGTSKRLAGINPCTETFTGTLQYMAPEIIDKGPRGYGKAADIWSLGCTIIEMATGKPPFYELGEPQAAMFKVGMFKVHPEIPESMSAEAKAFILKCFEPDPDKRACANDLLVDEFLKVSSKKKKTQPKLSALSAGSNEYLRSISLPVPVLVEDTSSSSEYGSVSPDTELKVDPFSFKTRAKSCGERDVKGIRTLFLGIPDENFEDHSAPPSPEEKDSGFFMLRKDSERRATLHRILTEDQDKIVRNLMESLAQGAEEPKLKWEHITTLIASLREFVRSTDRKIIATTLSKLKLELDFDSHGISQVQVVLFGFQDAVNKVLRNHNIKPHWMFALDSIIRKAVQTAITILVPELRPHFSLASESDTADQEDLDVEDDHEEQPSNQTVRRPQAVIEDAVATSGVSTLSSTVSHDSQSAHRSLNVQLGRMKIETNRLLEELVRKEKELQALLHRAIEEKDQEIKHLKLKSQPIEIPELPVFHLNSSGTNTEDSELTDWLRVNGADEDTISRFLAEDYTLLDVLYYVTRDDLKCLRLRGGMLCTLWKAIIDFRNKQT
# Experimental: FIGS. 4A-B show the results of binding experiments of ABP1 and ASK1. FIG. 4A: HEK293 cells were transfected with Flag-ABP1 and the Myc-ASK1 plasmid, the cells were recovered after 24 hours, immunoprecipitation with an anti-Flag antibody was conducted, and immunoblot analysis was conducted using an anti-Myc antibody. FIG. 4B: HEK293 cells were transfected with Flag-ASK1 and the CFP-ABP1 plasmid, the cells were recovered after 24 hours, immunoprecipitation with an anti-Flag antibody was conducted, and immunoblot analysis was conducted using an anti-GFP antibody. Note that CFP is a variant of GFP and can be recognized by an anti-GFP antibody. For both FIGS. 4A and B, the two right lanes show the results obtained with H2O2 treatment (0.5 mM, 1 hour). […] IP stands for immunoprecipitation, and IB stands for immunoblot.
# Two fusion proteins, i.e., Flag-ABP1 and Myc-ASK1, were co-expressed in HEK293 cells. […] The antibodies used were anti-Flag antibody (described above) and anti-Myc antibody (Clone 9E10, Calbiochem). This binding was enhanced by treatment with H2O2, which is ASK1 activation factor. […] The antibodies used were anti-Flag antibody (described above) and anti-GFP antibody (Medical & Biological Laboratories CO.).
# HeLa cells = assay: Cell death assay in HeLa cells transiently expressing CFP fusion proteins; type: cell-based
# Experimental: FIGS. 6A-B show the induction of cell death by ABP1 in HeLa cells. FIG. 6A: Fluorescence photomicrographs at 36 hours after HeLa cells were transfected with CFP or the CFP-ABP1 plasmid (upper panel) and differential interference photomicrographs for the same fields (lower panel) are shown. FIG. 6B: The ratio (%) of cell death at 36 hours after transfection is shown.
# FIGS. 10A-B show the induction of cell death by an ABP1-deficient variant. FIG. 10A: A schematic diagram of the ABP1-deficient variant is shown. […] FIG. 10B: The ratio (%) of cell death at 36 hours after transfection in cells introduced with the ABP1-deficient variant is shown.
# • (1) To examine the intracellular localization and function of ABP1, HeLa cells were transfected with the CFP-ABP1 plasmid [prepared by subcloning ABP1 cDNA prepared by PCR into pECFP-C1 (Clontech)], which was also used in the immunoprecipitation experiment, and which expresses a fusion protein of ABP1 with CFP at the N-terminal-[transfection conducted using FuGENE6 (Roche Diagnostics K.K) as directed in the instruction manual thereof] to allow the transient expression of the protein, and CFP fluorescence was examined over time using a fluorescence microscope. […] This calculation was made for CFP-positive cells.
# As described above, ABP1 has none of the functional domains of existing apoptosis-related factors. […]
# p38 = assay: Immunoblot with anti-phosphorylated p38 antibody in PAE-ABP1 cells; type: cell-based, porcine; conditions: 12 hours after tetracycline removal
# Text: (§1) FIGS. 11A-B show the activation of ASK1, JNK, and p38 by ABP1. FIG. 11A: PAE-ABP1 cells were cultivated in the absence of tetracycline, the activation of endogenous JNK and p38 was examined by immunoblot analysis using each anti-phosphorylated protein antibody. FIG. 11B: PAE-ABP1 cells were cultivated in the absence of tetracycline, the activation of endogenous ASK1 was examined by immunoblot analysis using an anti-phosphorylated protein antibody. IB stands for immunoblot.
# (§2) The activation of JNK and p38 during induction of the expression of ABP1 was investigated using respective anti-phosphorylated protein antibodies using PAE-ABP1 cells. The antibodies used were an anti-phosphorylated JNK antibody (Cell Signaling), an anti-phosphorylated p38 antibody (Cell Signaling), and an anti-phosphorylated ASK1 antibody (Tobiume et al., EMBO Rep., 2, 222-228, 2001). The cells were lysed using a lysis buffer (described above) in the same manner as Example 4, the lysate was centrifuged, the supernatant was recovered and reacted with an anti-Myc antibody (Clone 9E10, Calbiochem), Protein A-sepharose 4B (Zymed Laboratories) was added, incubation was conducted for 30 minutes, the reaction mixture was washed with the lysis buffer three times, an SDS sample buffer (described above) was added, and the same procedure as the immunoblotting method was followed.
# caspase-3 = assay: Caspase-3 activity (DEVD-AFC fluorometric assay) in PAE-ABP1 cells; type: cell-based, porcine; conditions: absence of tetracycline, around the time of cell death
# Experimental: FIGS. 9A-B show the caspase dependency of cell death by ABP1. FIG. 9A: PAE-ABP1 cells were cultivated in the absence of tetracycline, and caspase-3 activity was measured after 0, 12, 24, and 36 hours. The results are shown as relative values with the value in the presence of tetracycline taken as 1. FIG. 9B: PAE-ABP1 cells were treated with zVAD-fmk (50 μM) simultaneously with removal of tetracycline, and the ratio (%) of dead cells was quantified. Cell death assay was conducted at 18 hours after removal of tetracycline. Tet stands for tetracycline.
# The same was also confirmed in TUNEL staining of PAE-ABP1 cells. • (4) DNA fragmentation during apoptosis normally occurs subsequent to caspase activation. […] The measurement was conducted using a CPP32/caspase-3 fluorometric protease assay kit (MBL) with the synthetic fluorescence peptide DEVD-7-amino-4-trifluoromethyl coumarin (AFC) as a substrate. The fluorescence intensity from the liberated AFC was measured at an excitation wavelength of 360 nm and a fluorescence wavelength of 530 nm using a fluorescence spectrophotometer. Each sample was assayed twice. The results are shown as relative values with the value in the presence of tetracycline taken as 1.
# ASK1 [2] = assay: Immunoblot with anti-phosphorylated ASK1 antibody in PAE-ABP1 cells; type: cell-based, porcine; conditions: 12 hours after tetracycline removal
# Text: as §1, §2
# PAE-ABP1 cells [3] = assay: Cell death assay in PAE-ABP1 cells after removal of tetracycline; type: cell-based, porcine; conditions: 48 hours after removal of tetracycline (Myc-ABP1 expressed)
# Experimental: FIGS. 7A-B show the induction of cell death by ABP1 in PAE-ABP1 cells. FIG. 7A: Phase contrast photomicrographs at 36 hours after cultivation of PAE-ABP1 cells in the presence (+) and absence (−) of tetracycline (Tet) are shown. FIG. 7B: The ratio (%) of cell death from cultivation in the presence of tetracycline (O hour) and at 24 hours and 48 hours after removal of tetracycline.
# FIGS. 9A-B show the caspase dependency of cell death by ABP1. FIG. 9A: PAE-ABP1 cells were cultivated in the absence of tetracycline, and caspase-3 activity was measured after 0, 12, 24, and 36 hours. The results are shown as relative values with the value in the presence of tetracycline taken as 1. FIG. 9B: PAE-ABP1 cells were treated with zVAD-fmk (50 μM) simultaneously with removal of tetracycline, and the ratio (%) of dead cells was quantified. Cell death assay was conducted at 18 hours after removal of tetracycline. […]
# When these cells were cultured in the absence of tetracycline, cell death was induced with the expression of the ABP1 protein, as in the transient expression of the ABP1 protein in HeLa cells (FIG. 7A). The ratio of dead cells to all cells (the ratio of cells showing a morphological sign of cell death to all cells was determined under a microscope; the results were shown as the mean for three visual fields) was determined to be about 55% at 48 hours after removal of tetracycline (FIG. 7B).
# JNK = assay: Immunoblot with anti-phosphorylated JNK antibody in PAE-ABP1 cells; type: cell-based, porcine; conditions: 12 hours after tetracycline removal
# Text: as §1, §2
# PAE-ABP1 cells [4] = assay: DNA fragmentation (agarose gel electrophoresis) in PAE-ABP1 cells; type: cell-based, porcine; conditions: after removal of tetracycline
# Experimental: PAE-ABP1 cells were examined for DNA fragmentation at each time after removal of tetracycline by agarose gel electrophoresis (upper panel). At both ends are molecular weight markers (M), with their sizes shown at the right end.
# PAE-ABPl cells (2×10^6 cells) were lysed in 200 μl of lysis buffer [20 mM Tris-HCl (pH 7.5), 10 mM EDTA, 0.5% Triton X-100]. the lysate was centrifuged, and the supematant was recovered and treated with 0.2 mg/mi proteinase K at 420° C for 1 hour. Subsequently, DNA was purified by the phenol-chloroform extraction method and the ethanol precipitation method, this was lysed again in a TE buffer containing 0.2 mg/ml ribonuclease A (10mM Tris-HCl, 1mM EDTA), the lysate was electrophoresed on 2% agarose gel, stained with ethidium bromide, and the migration pattern was photographed.
Molecule,"effect of H2O2 treatment on binding of ABP1 and ASK1 (ASK1 [1]; H2O2 treatment (0.5 mM, 1 hour))","binding of ABP1 and ASK1 (co-immunoprecipitation) (ASK1 [1]; immunoprecipitation with anti-Flag antibody, immunoblot)",ratio of cell death among cells expressing the fusion protein (HeLa cells; 36 hours after transfection),"time after transfection at which signs of cell death began (HeLa cells; detachment from the culture plate, membrane blebbing)",activation of endogenous p38 (p38),caspase-3 activity (caspase-3),activation of endogenous ASK1 (ASK1 [2]),ratio of dead cells to all cells (PAE-ABP1 cells [3]),activation of endogenous JNK (JNK),DNA fragmentation (PAE-ABP1 cells [4])
B1,also enhanced,binding of the two proteins was confirmed,about 70%,around 24 hours,,,,,,
B2,,,,,observed,decreased,activation of ASK1 was observed,about 55%,observed,formed a DNA ladder
